In PMC12468279, “VEGF-VEGFR Signaling Mechanism Directs the Migration of Newborn Hemocytes from the Hematopoietic Site of Oyster Crassostrea gigas” (Cells, 2025):

Biological target: T1, recombinant PDGF domain of CgVEGF with a GST tag (rCgVEGF) (Crassostrea gigas, biotin (biotinylated; site not stated))
T1 chain: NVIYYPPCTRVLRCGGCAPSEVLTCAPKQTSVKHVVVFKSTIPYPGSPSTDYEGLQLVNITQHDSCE
Assay: BLI; Octet K2 (ForteBio); biotinylated rCgVEGF immobilised on streptavidin biosensors; rCgVEGFR in solution at 1150, 1125, 843.75, 632.81 and 474.61 ug/mL; global fit to a 1:1 binding model; rTrx as control analyte
Conditions: both partners purified

B1: recombinant extracellular domain of CgVEGFR with a Trx tag (rCgVEGFR) (domain or fragment)
chain: QLVVVEETDCLKRPCRNGGSCDDIDGDGNFTCGCLPQWSGHFCELDTNECLNPPCEHGGTCTNSHGGYFCACTEIWTGKNCEEFKRVTIVDPKPTMEIYPERERVDSENGSIYTSSGDIVLNSGENFTIECFGDYPIKLTFKSDRVAEAPDYLGMDIIRRPIANMSQNARAFGVIYLVSNPTYKYTGEYVCQYTENSLHTSKYIYIRDEDNLFLEKNKYPGVPIFKNSYLFEPLILPCHVSDPEADVKLLTNWGTEVQLPDSPITYDPKTGFLIEFPSYSFVGPFRCAASVNNGMMQTISYYVTFNVEYKPSPTLLPLGDLEIVLGEDFELRCQVTVPLSVQSVSIQWMYSSNENNVSLPISALMIAPGQRSDRVRFTRPVEDTSMASDKSKTYFSNLTVMNGMKMDQGRYTCNVTTGRSQSTAVSKNVILVGDGLLEIQQCKKGQEIADFRGNWTVITQEQQIGVQISCLIKSMPYPKVTWYFKGEELNFKNSTVSQRYNPTMLNTTRTLTNISLSIMLPGKEQVGLYEIIVEAGTKREYAHFQLVYQYKPVVLIPAINKDVPYLLPNTRYNVRALVSAVPPATSQGWLWQPCGELPSCKQNSNSWRNVTSDNYQRFNQSGHLKYYATNSKGTGEYVMKIKVAEYETGLGIHIDQEKPSIIQTFPLHVTCTATKWEYSNVKVVFWGETDSYWRDVNIQNGTTLLSHNTSLSWISELRIENFAPENVGLYGCEVDISSNSSKGHLSTGDALRVQMISLEKPVFTKNTLTDSVVETNMGHSYHVMDCSARGVPAPSIQWFKDGQLLNFTSEFLGLSLSDDNTSLTINKTDVVHSGIYVCEVENMNGVIYKNVTLQIKSSLQSQKLKTKVEKGT
- Kd: 879 nM
